± gives the standard deviation of the averaged measurements.
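Also: ATP exposure 15 min at 22 °C before imaging.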

The series deals with ATP. Description: switch fluorescence ratio, 500 uM ATP over buffer (Cy3 cluster intensity, sum of 5 cycles each) (fold (ratio)); higher = stronger signal-on switching upon ATP binding; sequences stand for … in TCGTCGGCAGCGTCAGATGTGTATAAGAGACAGTTTTTTTTTTTTTTTTTTTTTTTTT…TC. The following applies: aptamer strand: ATP DNA aptamer (quencher-CACCTGGGGGAGTATTGCGGAGGAAGG + anchor), 100 nM annealed; ATP concentration: 500 uM. The procedure, abridged: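 Cy3-labelled switching-strand clusters on a modified Illumina MiSeq flow-cell were annealed to 100 nM quencher-labelled ATP aptamer and imaged first in selection buffer, then after 15 min with 500 uM ATP at 22 °C. NaOH stripping and re-annealing separated each of five buffer/ATP cycles, and clusters outside 100-1000 RFU were excluded. The fluorescence ratio sums target-cycle Cy3 intensity over buffer-cycle Cy3 intensity per cluster and averages it per switch-domain sequence.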
On to CTGGCATTTC, for which the switch fluorescence ratio was determined as 1.37 ± 0.047. In the case of GATTCATTAT it was 0.988 ± 0.011; in that of TTTGGGTTCC, 1.44 ± 0.35; in that of TTTTCTTTTT, 1.06 ± 0.14. In the case of TCCAGATGGA it was 0.977 ± 0.037; in that of TGGATCAATT, 1.01 ± 0.011.

Turning to ATATCCTTCA, the switch fluorescence ratio is 1.35 ± 0.43. As for CTACATACGG, the switch fluorescence ratio was found to be 1.52 ± 0.02. In the case of TAAGGGGATA, the switch fluorescence ratio came out at 1.06 ± 0.11. As for CCTTGGGGGG, the switch fluorescence ratio came out at 1.03 ± 0.11.

For CGTATGATAG, the switch fluorescence ratio was 1.015 ± 0.0047. In the case of TTTCAGAGTC it was 1.01 ± 0.064; in that of AAGTGCATGC, 1.01 ± 0.11; in that of TAAGGGGGG, 1.01 ± 0.029. The figure for GCGTTTAATG is 0.977 ± 0.047; for TGGGAACGAT it is 1.011 ± 0.0034; for TATATATTTG it is 1.03 ± 0.029. In the case of GCTCGGGGTA, the switch fluorescence ratio stood at 1.02 ± 0.013. In the case of AGAAAAAACA it was 0.986 ± 0.02; in that of TTTCTTCGCT, 1.01 ± 0.046; in that of GCCATTAGAC, 1.04 ± 0.049. The figure for GTAATAATTT is 0.9982 ± 0.0034; for CGATTAGTCT it is 0.9951 ± 0.0021.

Consider TATGGCCAGT, for which the switch fluorescence ratio was 1.03 ± 0.033. The figure for GGGATAGGCA is 1.01 ± 0.039; for TGATAATTTA it is 1.06 ± 0.016; for GTGCTTACGA it is 1.068 ± 0.01. As to GGCGTCCTCT, the switch fluorescence ratio is 1.05 ± 0.034. In the case of TTGTCATTGG it was 0.992 ± 0.019; in that of AGGGGTAATT, 1.02 ± 0.024. As to TACAAAGGGA, the switch fluorescence ratio came to 1.01 ± 0.027.

As to TGGGATGCAA, the switch fluorescence ratio turned out to be 1.04 ± 0.035. For the sequence GAAGGGCATC, the switch fluorescence ratio came to 0.989 ± 0.043. Regarding ATTGGCTGTT, the switch fluorescence ratio worked out at 0.997 ± 0.052.

Turning to GTTGGGGGAT, the switch fluorescence ratio is 0.986 ± 0.038.

For the sequence ATCGGCAGGC, the switch fluorescence ratio was 1.22 ± 0.075. Take CGATGCTCTG: the switch fluorescence ratio was 1.01 ± 0.063.

As to ATATCGGTGT, the switch fluorescence ratio worked out at 0.991 ± 0.029. The figure for GTGGGAATAT is 1.001 ± 0.0083; for AATAAGAAGG it is 0.999 ± 0.013; for TGGGGGACAT it is 1.01 ± 0.028.

In the case of TTTTGGGGGG, the switch fluorescence ratio turned out to be 1.02 ± 0.081.

As to CTACTGAAGG, the switch fluorescence ratio was determined as 0.983 ± 0.014.

For TGGTATATT, the switch fluorescence ratio worked out at 0.986 ± 0.027. The figure for TTAGCGAGGC is 2.13 ± 1.2; for TTAAACGGGA it is 1.03 ± 0.024. In the case of TATTGGCTTG it was 0.985 ± 0.013; in that of TCGGGCTCGC, 0.9639 ± 0.0068. Regarding CGGTTTTGAG, the switch fluorescence ratio came to 1.01 ± 0.034.

For TGTTTTAGGT, the switch fluorescence ratio turned out to be 1.02 ± 0.029. In the case of TGTTTAAAAA it was 0.987 ± 0.025; in that of GAATCGTTTT, 0.9553 ± 0.0068. The figure for TTGGGTTCGT is 0.998 ± 0.037; for CGTTTAGGGA it is 1.004 ± 0.0026. In the case of CTGATAGGGA it was 1.01 ± 0.019; in that of ACGTTTGCG, 0.98 ± 0.04.

In the case of TCGTCCCTGT, the switch fluorescence ratio was found to be 1.074 ± 0.003. On to TGCTTGAGTC, for which the switch fluorescence ratio amounted to 1.009 ± 0.0027.

Regarding CTGGGGGGGC, the switch fluorescence ratio turned out to be 1.01 ± 0.043. Consider AGTTGGGGTT, for which the switch fluorescence ratio came to 1.035 ± 0.0033. The figure for TGTTTTCCCT is 0.979 ± 0.053; for GGGATGAAGA it is 1 ± 0.013. TAATAATATT: the switch fluorescence ratio amounted to 1 ± 0.018. Regarding GGACATATTA, the switch fluorescence ratio stood at 1 ± 0.028. In the case of TTGGATAGAG it was 0.996 ± 0.013. In the case of AGCTAGTATG it was 0.993 ± 0.016; in that of CGAGTGGGGT, 1.01 ± 0.043; in that of GTGTTTATGG, 0.984 ± 0.011.

As for AATGGGAAGT, the switch fluorescence ratio was 0.991 ± 0.019. Consider GTCATTAGCG, for which the switch fluorescence ratio is 0.973 ± 0.012. In the case of TTCGTATAAG it was 0.9936 ± 0.0076. The figure for TTTTGACGAG is 1.016 ± 0.0033. Regarding TTTTAAGGCA, the switch fluorescence ratio was found to be 1.03 ± 0.031. The figure for TTTCGCCATA is 2.39 ± 2; for CCGGGGGTCA it is 1.01 ± 0.039. In the case of CTGGTTAGGG it was 0.98 ± 0.018. In the case of TTCCTTTTTA it was 1.02 ± 0.015; in that of ATAACGGAGG, 0.9773 ± 0.0088.

Values taken from the supplement of paper PMC10126150.
